Data: patent publication US20240116985A1, “STAPLED PEPTIDES AND METHODS THEREOF” (priority 2020, published 2024)
Each block holds one binder with its values, some of them ahead of it. Starred links: 1 amine or outer side, 2 acyl side, 3 side chain; linkers in the order of their positions; H or OH if unused. Positions of bridges follow the written chain, without caps; N, C: chain ends. Non-standard residues stand in square brackets, D forms with d. Primed or numbered codes have the meaning given here. No end group written: not given here. PyrS2″ = (S)-3-amino-1-((pent-4-en-1-yloxy)carbonyl)pyrrolidine-3-carboxylic acid (stapling residue), C=CCCCOC(=O)N1CC[C@@](N[*:1])(C(=O)[*:2])C1; B5(4) = 2,2-bis(4-pentenyl)glycine = 2-amino-2-(pent-4-en-1-yl)hept-6-enoic acid (stitching residue), C=CCCCC(CCCC=C)(N[*:1])C(=O)[*:2]; B5(5) = 2,2-bis(4-pentenyl)glycine, 2-amino-2-(pent-4-en-1-yl)hept-6-enoic acid (stitching residue), C=CCCCC(CCCC=C)(N[*:1])C(=O)[*:2]; TfeGA = (S)-2-amino-3-((carboxymethyl)(2,2,2-trifluoroethyl)amino)propanoic acid, O=C([C@H](CN(CC(=O)[*:3])CC(F)(F)F)N[*:1])[*:2]; PyrS2 = (S)-3-amino-1-((pent-4-en-1-yloxy)carbonyl)pyrrolidine-3-carboxylic acid, C=CCCCOC(=O)N1CC[C@@](N[*:1])(C(=O)[*:2])C1; PyrS3 = (S)-3-amino-1-((hex-5-en-1-yloxy)carbonyl)pyrrolidine-3-carboxylic acid, C=CCCCCOC(=O)N1CC[C@@](N[*:1])(C(=O)[*:2])C1; Az2 = 3-amino-1-((pent-4-en-1-yloxy)carbonyl)azetidine-3-carboxylic acid, C=CCCCOC(=O)N1CC(N[*:1])(C(=O)[*:2])C1; Az3 = 3-amino-1-((hex-5-en-1-yloxy)carbonyl)azetidine-3-carboxylic acid, C=CCCCCOC(=O)N1CC(N[*:1])(C(=O)[*:2])C1; B5(12) = 2-amino-2-(pent-4-en-1-yl)hept-6-enoic acid (two olefin side chains), C=CCCCC(CCCC=C)(N[*:1])C(=O)[*:2]; B5(7) = 2-amino-2-(pent-4-en-1-yl)hept-6-enoic acid, two olefinic side chains, C=CCCCC(CCCC=C)(N[*:1])C(=O)[*:2]; B5(13) = 2-amino-2-(pent-4-en-1-yl)hept-6-enoic acid (two alkene chains), C=CCCCC(CCCC=C)(N[*:1])C(=O)[*:2]; B5(3) = 2,2-bis(4-pentenyl)glycine (stitching residue), C=CCCCC(CCCC=C)(N[*:1])C(=O)[*:2]; B5 = 2-amino-2-(pent-4-en-1-yl)hept-6-enoic acid, C=CCCCC(CCCC=C)(N[*:1])C(=O)[*:2]; Phe(3-COOH) = N[C@@H](Cc1cccc(C(=O)O)c1)C(=O)O; Phe(2-Cl) = N[C@@H](Cc1ccccc1Cl)C(=O)O; Bta = N[C@@H](Cc1csc2ccccc12)C(=O)O; αAllylPro = C=CC[C@@]1(C(=O)O)CCCN1; tBuAla = CC(C)(C)C[C@H](N)C(=O)O; 3Thi = N[C@@H](Cc1ccsc1)C(=O)O; S8 = C=CCCCCCC[C@](C)(N)C(=O)O; hSer = N[C@@H](CCO)C(=O)O; Abu = CC[C@H](N)C(=O)O; Aib = CC(C)(N)C(=O)O

What was measured:
[1] = molecular target: Bcat-Halo (beta-catenin HaloTag construct expressed in HEK293 cells) (UniProt P35222); test: NanoBRET IC50 in HEK293 cells; Bcat-Halo with TCF4-Luc as competitor
Bcat-Halo (beta-catenin HaloTag construct expressed in HEK293 cells), sequence (P35222 whole entry, the tested form may be a part): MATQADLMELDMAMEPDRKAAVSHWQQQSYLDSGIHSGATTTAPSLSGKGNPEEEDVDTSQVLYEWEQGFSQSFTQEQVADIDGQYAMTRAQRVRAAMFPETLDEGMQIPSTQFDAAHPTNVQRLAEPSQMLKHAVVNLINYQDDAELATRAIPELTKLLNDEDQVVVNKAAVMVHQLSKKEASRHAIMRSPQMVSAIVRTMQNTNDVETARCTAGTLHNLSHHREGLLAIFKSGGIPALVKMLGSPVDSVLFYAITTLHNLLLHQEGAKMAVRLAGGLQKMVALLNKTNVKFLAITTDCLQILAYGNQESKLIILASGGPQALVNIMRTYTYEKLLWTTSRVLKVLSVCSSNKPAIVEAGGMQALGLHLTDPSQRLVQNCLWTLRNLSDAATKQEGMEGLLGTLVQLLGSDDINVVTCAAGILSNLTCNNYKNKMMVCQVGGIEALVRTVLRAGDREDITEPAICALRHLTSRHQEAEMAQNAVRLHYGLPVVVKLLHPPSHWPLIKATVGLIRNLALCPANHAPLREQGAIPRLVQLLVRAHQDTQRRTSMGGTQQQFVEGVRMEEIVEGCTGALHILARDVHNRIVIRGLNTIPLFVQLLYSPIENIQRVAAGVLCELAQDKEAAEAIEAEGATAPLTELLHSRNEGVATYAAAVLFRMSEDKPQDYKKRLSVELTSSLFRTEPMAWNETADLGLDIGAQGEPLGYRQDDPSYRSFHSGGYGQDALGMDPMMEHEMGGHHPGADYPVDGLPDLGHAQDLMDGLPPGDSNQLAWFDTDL

[2] = molecular target: full-length beta-Catenin (Uniprot ID P35222) (Homo sapiens (Human)) (UniProt P35222); test: fluorescence polarization competition; 10 nM full-length beta-catenin with 10 nM 5FAM-TCF4 (residues 10-53) probe as competitor
Target sequence in this assay (P35222 2-781 limits assumed): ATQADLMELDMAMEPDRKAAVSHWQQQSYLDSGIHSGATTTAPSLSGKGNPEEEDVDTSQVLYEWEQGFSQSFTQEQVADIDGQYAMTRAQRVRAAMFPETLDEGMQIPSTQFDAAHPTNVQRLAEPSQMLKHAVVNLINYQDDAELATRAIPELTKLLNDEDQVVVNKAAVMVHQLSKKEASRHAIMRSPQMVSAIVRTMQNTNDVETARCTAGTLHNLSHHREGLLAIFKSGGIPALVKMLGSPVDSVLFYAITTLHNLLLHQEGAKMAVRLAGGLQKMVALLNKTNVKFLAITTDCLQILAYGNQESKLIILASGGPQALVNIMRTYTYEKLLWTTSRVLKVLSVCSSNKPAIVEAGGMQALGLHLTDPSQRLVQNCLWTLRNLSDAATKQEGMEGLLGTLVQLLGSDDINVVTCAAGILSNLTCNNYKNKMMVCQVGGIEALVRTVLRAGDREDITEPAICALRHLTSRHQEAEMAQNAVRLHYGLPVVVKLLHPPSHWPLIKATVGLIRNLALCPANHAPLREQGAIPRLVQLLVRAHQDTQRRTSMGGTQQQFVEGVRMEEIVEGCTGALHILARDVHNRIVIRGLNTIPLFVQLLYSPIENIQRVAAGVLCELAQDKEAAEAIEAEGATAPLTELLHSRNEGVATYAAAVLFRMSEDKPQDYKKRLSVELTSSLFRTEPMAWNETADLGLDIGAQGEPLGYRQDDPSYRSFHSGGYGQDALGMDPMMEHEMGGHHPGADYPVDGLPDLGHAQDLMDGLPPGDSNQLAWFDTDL

[3] = molecular target: full-length beta-Catenin (Uniprot ID P35222) (Homo sapiens (Human)) (UniProt P35222); test: fluorescence polarization competition; displacement of 5FAM-TCF4(10-53) from full-length beta-catenin
Target sequence in this assay (P35222 whole entry, the tested form may be a part, one chain of several): as the sequence (P35222 whole entry, the tested form may be a part) above

[4] = molecular target: full-length beta-Catenin (Uniprot ID P35222) (Homo sapiens (Human)) (UniProt P35222); test: competition fluorescence polarization; full-length beta-catenin, 5FAM-TCF4(10-53) probe as competitor
Target sequence in this assay (P35222 whole entry, the tested form may be a part, one chain of several): as the sequence (P35222 whole entry, the tested form may be a part) above

[5] = molecular target: Bcat-Halo (UniProt P35222); test: NanoBRET Abs IC50 in HEK293 cells; Bcat-Halo, TCF4-Luc as competitor
Bcat-Halo, sequence (P35222 whole entry): as the sequence (P35222 whole entry, the tested form may be a part) above

[6] = molecular target: full-length beta-Catenin (Uniprot ID P35222) (Homo sapiens (Human)) (UniProt P35222); test: fluorescence polarization competition; 10 nM full-length beta-catenin with 10 nM 5FAM-TCF4(10-53) probe
Target sequence in this assay (P35222 2-781 limits assumed): as the sequence (P35222 2-781 limits assumed) above

[7] = molecular target: full-length beta-Catenin (Uniprot ID P35222) (Homo sapiens (Human)) (UniProt P35222); test: fluorescence polarization competition; full-length beta-catenin, competitor 5FAM-TCF4(10-53) probe
[8] = molecular target: full-length beta-Catenin (Uniprot ID P35222) (Homo sapiens (Human)) (UniProt P35222); test: FP competition vs 5FAM-TCF4(10-53), full-length beta-catenin
Target sequence in this assay (P35222 2-781 limits assumed): as above

[9] = molecular target: Bcat-Halo (UniProt P35222); test: NanoBRET Abs IC50, HEK293 cells, B-cat-Halo/TCF4-Luc; competitor TCF4-Luc
[10] = molecular target: full-length beta-Catenin (Uniprot ID P35222) (Homo sapiens (Human)) (UniProt P35222); test: fluorescence polarization competition; full-length beta-catenin with 5FAM-labeled TCF4 (10-53) probe as competitor
Target sequence in this assay (P35222 whole entry, the tested form may be a part, one chain of several): as the sequence (P35222 whole entry, the tested form may be a part) above

[11] = molecular target: B-cat-Halo (beta-catenin HaloTag NanoBRET construct expressed in HEK293 cells) (UniProt P35222); test: NanoBRET Abs IC50; HEK293 cells transfected with B-cat-Halo and TCF4-Luc (competitor: TCF4-Luc)
B-cat-Halo (beta-catenin HaloTag NanoBRET construct expressed in HEK293 cells), sequence (P35222 whole entry): as the sequence (P35222 whole entry, the tested form may be a part) above

[12] = molecular target: full-length beta-Catenin (Uniprot ID P35222) (Homo sapiens (Human)) (UniProt P35222); test: fluorescence polarization competition; full-length beta-catenin, competitor probe 5FAM-TCF4(10-53)
Target sequence in this assay (P35222 2-781 limits assumed): as the sequence (P35222 2-781 limits assumed) above

[13] = molecular target: full-length beta-Catenin (Uniprot ID P35222) (Homo sapiens (Human)) (UniProt P35222); test: fluorescence polarization competition; 10 nM full-length beta-catenin with 10 nM 5FAM-labeled TCF4 residues 10-53 probe, peptide titrated
Target sequence in this assay (P35222 whole entry, the tested form may be a part, one chain of several): as the sequence (P35222 whole entry, the tested form may be a part) above

[14] = molecular target: full-length beta-Catenin (Uniprot ID P35222) (Homo sapiens (Human)) (UniProt P35222); test: fluorescence polarization competition, peptide titrated against full-length beta-catenin + 5FAM-TCF4(10-53)
Target sequence in this assay (P35222 2-781 limits assumed): as the sequence (P35222 2-781 limits assumed) above

[15] = molecular target: full-length beta-Catenin (Uniprot ID P35222) (Homo sapiens (Human)) (UniProt P35222); test: fluorescence polarization competition; 5FAM-TCF4 10-53 probe on full-length beta-catenin
Target sequence in this assay (P35222 whole entry, the tested form may be a part, one chain of several): as the sequence (P35222 whole entry, the tested form may be a part) above

[16] = molecular target: Bcat-Halo (UniProt P35222); test: NanoBRET in HEK293 cells, Bcat-Halo/TCF4-Luc (competitor TCF4-Luc); absolute IC50
[17] = molecular target: full-length beta-Catenin (Uniprot ID P35222) (Homo sapiens (Human)) (UniProt P35222); test: fluorescence polarization competition; full-length beta-catenin with 5FAM-TCF4(10-53) probe as competitor
Target sequence in this assay (P35222 whole entry, the tested form may be a part, one chain of several): as the sequence (P35222 whole entry, the tested form may be a part) above

[18] = molecular target: full-length beta-Catenin (Uniprot ID P35222) (Homo sapiens (Human)) (UniProt P35222); test: FP competition vs 5FAM-TCF4(10-53) probe on full-length beta-catenin
[19] = molecular target: full-length beta-Catenin (Uniprot ID P35222) (Homo sapiens (Human)) (UniProt P35222); test: AlphaScreen competition vs biotin-TCF4(10-53) on full-length beta-catenin
[20] = molecular target: full-length beta-Catenin (Uniprot ID P35222) (Homo sapiens (Human)) (UniProt P35222); test: fluorescence polarization competition; peptide displaces 5FAM-TCF4(10-53) from full-length beta-catenin
Target sequence in this assay (P35222 2-781 limits assumed): as the sequence (P35222 2-781 limits assumed) above

[21] = molecular target: Bcat-Halo (UniProt P35222); test: NanoBRET in HEK293 cells, Bcat-Halo/TCF4-Luc (competitor TCF4-Luc); percent inhibition at 10 uM peptide
[22] = molecular target: full-length beta-Catenin (Uniprot ID P35222) (Homo sapiens (Human)) (UniProt P35222); test: fluorescence polarization competition; full-length beta-catenin, 5FAM-TCF4(10-53) probe
[23] = molecular target: full-length beta-Catenin (Uniprot ID P35222) (Homo sapiens (Human)) (UniProt P35222); test: fluorescence polarization competition, full-length beta-catenin with 5FAM-TCF4(10-53) probe

Binder: Ac-[αAllylPro]D[tBuAla][B5(4)]DTAAFN[PyrS2][3Thi][Bta]Q-NH2 (staple 1-4, 4-11) [I-844]
IC50 [1]: 10700 nM | EC50 [2]: 6 nM | IC50 [3]: 6 nM

Binder: Ac-[αAllylPro]D[Abu][B5(4)]DEAAFQ[S8]F[Bta]H-NH2 (staple 1-4, 4-11) [I-571]
IC50 [4]: 32 nM | IC50 [5]: 15600 nM | EC50 [3]: 32 nM

Binder: Ac-[αAllylPro]D[tBuAla][B5(3)]D[Phe(3-COOH)][Aib]AFL[Az2][3Thi][Bta]Q-NH2 (staple 1-4, 4-11) [I-2617]
IC50 [6]: 130 nM

Binder: Ac-[αAllylPro]D[tBuAla][B5(5)]DDAAFN[S8]F[Bta]H-NH2 (staple 1-4, 4-11) [I-582]
IC50 [4]: 17.5 nM | IC50 [5]: 15800 nM | EC50 [7]: 17.5 nM

B1: I-1985 (peptide)
peptide: PD[tBuAla][B5]D[Phe(3-COOH)]AAFL[PyrS2][Phe(2-Cl)][Bta]Q-NH2
modifications: staple 4-11; staple (positions not given here); not fully specified (residue 1, N-terminus, bridges); printed as ProAm6-Asp-Npg-B5-Asp-3COOHF-Ala-Ala-Phe-Leu-PyrS2-2C1F-BztA-Gln-NH2
IC50 [13]: 325 nM

Binder: Ac-[αAllylPro]D[tBuAla][B5(3)]D[TfeGA]AAFF[PyrS2″][Phe(2-Cl)][Bta]S-NH2 (staple 1-4, 4-11) [I-990]
EC50 [10]: 41 nM | IC50 [11]: 8800 nM | IC50 [12]: 41 nM

B3: I-2618 (peptide)
peptide: Ac-[αAllylPro]D[tBuAla][B5(3)]D[Phe(3-COOH)][Aib]AFL[Az3][3Thi][Bta]Q-NH2
modifications: staple 1-4, 4-11; not fully specified; printed as Ac-PL3-Asp-Npg-B5-Asp-3COOHF-Aib-Ala-Phe-Leu-Az3-3Thi-BztA-Gln-NH2
IC50 [6]: 77 nM

Binder: Ac-[αAllylPro]D[tBuAla][B5]DDAAFN[PyrS2″][3Thi][Bta][dT]-NH2 (staple 1-4, 4-11) [I-817]
EC50 [14]: 10 nM | IC50 [15]: 10 nM

Binder: Ac-[αAllylPro]D[tBuAla][B5(12)]DNAAFN[PyrS2][3Thi][Bta]-NH2 (staple 1-4, 4-11) [I-857]
IC50 [1]: 50600 nM | EC50 [2]: 15 nM | IC50 [8]: 15 nM | IC50 [9]: 30600 nM

Binder: Ac-[αAllylPro]DA[B5(4)]D[TfeGA]AAFV[S8]F[Bta]Q-NH2 (staple 1-4, 4-11) [I-293]
EC50 [18]: 140 nM | EC50 [19]: 41 nM

Binder: Ac-[αAllylPro]D[tBuAla][B5(3)]D[TfeGA]AAFF[S8][Phe(2-Cl)][Bta]Q-NH2 (staple 1-4, 4-11) [I-931]
IC50 [22]: 221 nM | EC50 [23]: 221 nM

Further lines, results first:

IC50 [4]: 36 nM | IC50 [5]: > 20000 nM | EC50 [7]: 36 nM
Binder: Ac-[αAllylPro]D[Abu][B5]DDAAFN[S8]F[Bta]H-NH2 (staple 1-4, 4-11) [I-574]

IC50 [1]: 29100 nM | EC50 [2]: 12 nM | IC50 [8]: 12 nM | IC50 [9]: 40000 nM
Binder: Ac-[αAllylPro]D[tBuAla][B5(3)]DHAAFN[PyrS2″][3Thi][Bta]Q-NH2 (staple 1-4, 4-11) [I-864]

EC50 [10]: 21 nM | IC50 [11]: 11300 nM | IC50 [12]: 21 nM
Binder: Ac-[αAllylPro]D[tBuAla][B5(3)]D[TfeGA]AAF[hSer][S8][Phe(2-Cl)][Bta]Q-NH2 (staple 1-4, 4-11) [I-996]

IC50 [6]: 36 nM
B2: I-2619 (peptide)
peptide: Ac-[αAllylPro]D[tBuAla][B5(4)]D[Phe(3-COOH)][Aib]AFL[Az3][3Thi][Bta]Q-NH2
modifications: staple 1-4, 4-11; not fully specified; printed as Ac-PL3-Asp-Npg-B5-Asp-3COOHF-Aib-Ala-Phe-Leu-Az3-3Thi-BztA-Gln-NH2

EC50 [10]: 5 nM | IC50 [11]: 13900 nM | IC50 [12]: 5 nM
Binder: Ac-[αAllylPro]D[tBuAla][B5(3)]D[TfeGA]AAFF[PyrS2″]F[Bta]Q-NH2 (staple 1-4, 4-11) [I-988]

IC50 [16]: 13700 nM | IC50 [17]: 5 nM | EC50 [7]: 5 nM
Binder: Ac-[αAllylPro]D[tBuAla][B5(7)]D[TfeGA]AAFN[PyrS2][3Thi][Bta]H-NH2 (staple 1-4, 4-11; also: later-eluting staple isomer) [I-770]

IC50 [13]: 502 nM
B4: I-1986 (peptide)
peptide: PD[tBuAla][B5]D[TfeGA]AAFT[PyrS2][Phe(2-Cl)][Bta]Q-NH2
modifications: staple 4-11; staple (positions not given here); not fully specified (residue 1, N-terminus, bridges)

IC50 [13]: 320 nM
B5: I-1984 (peptide)
peptide: PD[tBuAla][B5]D[Phe(3-COOH)]AAFL[PyrS2][Phe(2-Cl)][Bta]Q-NH2
modifications: staple 4-11; staple (positions not given here); not fully specified (residue 1, N-terminus, bridges); printed as ProAm5-Asp-Npg-B5-Asp-3COOHF-Ala-Ala-Phe-Leu-PyrS2-2C1F-BztA-Gln-NH2

IC50 [16]: 13000 nM | IC50 [17]: 5 nM | EC50 [7]: 5 nM
Binder: Ac-[αAllylPro]D[tBuAla][B5(7)]D[TfeGA]AAFN[PyrS2][3Thi][Bta]H-NH2 (staple 1-4, 4-11; also: earlier-eluting staple isomer) [I-769]

IC50 [20]: 6 nM | NanoBRET % inh @ 10 uM [21]: 5.1% | EC50 [7]: 7 nM
Binder: Ac-[αAllylPro]D[tBuAla][B5(13)]DDAAFN[PyrS3][3Thi][Bta]H-NH2 (staple 1-4, 4-11) [I-775]
